The experiment deals with LC8 (as used with syn-4mer) ( (S. cerevisiae or D. …, UniProt Q24117 1-89)). Put plainly: ITC. A general note: In ITC the heat of successive injections is recorded.
Chain of LC8 (as used with syn-4mer) ( (Q24117 whole entry): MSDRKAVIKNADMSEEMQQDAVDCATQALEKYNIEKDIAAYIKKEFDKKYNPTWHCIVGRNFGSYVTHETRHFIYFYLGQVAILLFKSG

B1: synthetic four-site IDP (syn-4mer) (designed binder)
chain: GSYGSRKAIDAATQTEPKETRKAIDAATQTEPKETRKAIDAATQTEPKETRKAIDAATQTEGSYGS
For orientation: Kd means a measure of binding affinity in units of concentration. Turning to B1, the Kd was approximately 40 nM.

Source of the values: paper PMC9050902 (Journal of molecular biology, 2022).
